Target: StWRKY1 (Solanum tuberosum, UniProt Q9LEC7 1-172)
Assay: EMSA; shift inhibited by excess unlabelled competitor; poly(dI-dC); EMSA: 20 ul with kit binding buffer (LightShift), 1 ul each of 1 ug/ul poly(dI-dC), 50% glycerol, 1% NP-40, 1 M KCl, 100 mM MgCl2, 200 mM EDTA; 3 ug protein, 20 fmol probe; 25 C, 20 min; pH not stated
Conditions: protein: recombinant; label: 3' biotin; blunt

Chain of StWRKY1 (Q9LEC7 entry or part of it): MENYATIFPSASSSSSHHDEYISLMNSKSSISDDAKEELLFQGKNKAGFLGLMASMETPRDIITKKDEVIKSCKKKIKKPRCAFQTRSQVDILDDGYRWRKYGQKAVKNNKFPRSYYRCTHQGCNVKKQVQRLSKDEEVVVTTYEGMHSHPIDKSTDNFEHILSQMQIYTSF

B1: THT promoter W1-box probe (dsDNA)
DNA 1: TCGTCAGAGTTGACCTCCACCAACCA
DNA 2: TGGTTGGTGGAGGTCAACTCTGACGA
Does B1 bind?
Result: binds
